IntAct's records for PubMed 24256567

B1: Tyrosine-protein kinase ZAP-70 (Homo sapiens), P43403 (parent)
chain: MPDPAAHLPFFYGSISRAEAEEHLKLAGMADGLFLLRQCLRSLGGYVLSLVHDVRFHHFPIERQLNGTYAIAGGKAHCGPAELCEFYSRDPDGLPCNLRKPCNRPSGLEPQPGVFDCLRDAMVRDYVRQTWKLEGEALEQAIISQAPQVEKLIATTAHERMPWYHSSLTREEAERKLYSGAQTDGKFLLRPRKEQGTYALSLIYGKTVYHYLISQDKAGKYCIPEGTKFDTLWQLVEYLKLKADGLIYCLKEACPNSSASNASGAAAPTLPAHPSTLTHPQRRIDTLNSDGYTPEPARITSPDKPRPMPMDTSVYESPYSDPEELKDKKLFLKRDNLLIADIELGCGNFGSVRQGVYRMRKKQIDVAIKVLKQGTEKADTEEMMREAQIMHQLDNPYIVRLIGVCQAEALMLVMEMAGGGPLHKFLVGKREEIPVSNVAELLHQVSMGMKYLEEKNFVHRDLAARNVLLVNRHYAKISDFGLSKALGADDSYYTARSAGKWPLKWYAPECINFRKFSSRSDVWSYGVTMWEALSYGQKPYKKMKGPEVMAFIEQGKRMECPPECPPELYALMSDCWIYKWEDRPDFLTVEQRMRACYYSLASKVEGPPGSTQKAEAACA

Variants of: B1
Conditions: with ubs3b_mouse Ubash3b

Variant	effect of a mutation on the interaction
Y319F	disrupting interaction
